Source: article PMC10085991

Columns and labels:
[1] = molecular target: β2 adrenergic receptor 148C-378C (min-C-β2AR with N148C and native C378) (human) (UniProt P07550); assay: FRET or BRET; single-molecule FRET (TIRF), receptor immobilised by FLAG/M1 Fab; titration of Gs^GDP with 100 μM isoproterenol and 20 μM cmpd-6 (positive allosteric modulator); 25 °C
[2] = molecular target: β2 adrenergic receptor 148C-378C (min-C-β2AR with N148C and native C378) (human) (UniProt P07550); assay: FRET or BRET; single-molecule FRET (TIRF), receptor immobilised by FLAG/M1 Fab; titration of Gs^GDP with 100 μM isoproterenol and 20 μM cmpd-15 (negative allosteric modulator); 25 °C
[3] = molecular target: β2 adrenergic receptor 148C-378C (min-C-β2AR with N148C and native C378) (human) (UniProt P07550); assay: FRET or BRET; single-molecule FRET (TIRF) between labels at 148C and 378C of the receptor; receptor immobilised by N-terminal FLAG on biotinylated M1 Fab; Gs^GDP 3.16 nM to 10 μM in solution; 200 μM isoproterenol; 25 °C; 50 mM HEPES pH 7.5, 100 mM NaCl, 5 mM MgCl2, 5 mM CaCl2, 0.01% MNG, 0.001% CHS; apparent EC50 of low-FRET occupancy

## Gs heterotrimer (human Gαs, rat Gβ1, bovine Gγ2) (from UniProt P63092 1-394; P54311 1-340; P63212 1-71) (complex)
[1]
  EC50: 26 nM
[2]
  EC50: 350 nM
[3]
  EC50: 100 nM
  high-FRET dwell time, plateau at high Gs concentration: 2 s
